Laboratory results taken from publication PMC3145769, “Cyclin A2 Mutagenesis Analysis: A New Insight into CDK Activation and Cellular Localization Requirements” (PLoS ONE, 2011).

Tests used:
Assay in all cases: co-IP; anti-Flag M2 affinity gel on extracts of human HEK 293 cells transfected with mouse 3xFlag Cyclin A2 alleles; endogenous partners detected by Western blot; densitometry (ImageQuantTL) normalised to immunoprecipitated Cyclin A2, percent of WT; repeated 3 times
Details in all cases: partners not purified
[1] = molecular target: T1, Cyclin A2 WT, C-terminally fused to 3 Flag tags (mouse, UniProt P51943 1-422)
T1 construct: Cyclin A2, mouse; cDNA obtained from NIH3T3 cells by RT-PCR; Same construct transfected into mouse NIH3T3 (assay a1) and human HEK 293 (assay a2); also called WT Cyclin A2 allele; Flag tagged WT Cyclin A2; source: NIH3T3 or HEK 293 cells, transfected, in cell extracts; not shown: 3xFlag, C-terminal, kept

[2] = molecular target: T2, Cyclin A2 D171A, C-terminally fused to 3 Flag tags (mouse, UniProt P51943 1-422, D171A)
T2 construct: Cyclin A2, mouse; cDNA obtained from NIH3T3 cells by RT-PCR; source: NIH3T3 or HEK 293 cells, transfected, in cell extracts; not shown: 3xFlag, C-terminal, kept

[3] = molecular target: T3, Cyclin A2 M200A, C-terminally fused to 3 Flag tags (mouse, UniProt P51943 1-422, M200A)
T3 construct: Cyclin A2, mouse; cDNA obtained from NIH3T3 cells by RT-PCR; source: NIH3T3 or HEK 293 cells, transfected, in cell extracts; not shown: 3xFlag, C-terminal, kept

[4] = molecular target: T4, Cyclin A2 L204A, C-terminally fused to 3 Flag tags (mouse, UniProt P51943 1-422, L204A)
T4 construct: Cyclin A2, mouse; cDNA obtained from NIH3T3 cells by RT-PCR; source: NIH3T3 or HEK 293 cells, transfected, in cell extracts; not shown: 3xFlag, C-terminal, kept
T4 sequence (P51943 whole entry L204A, the tested form may be a part): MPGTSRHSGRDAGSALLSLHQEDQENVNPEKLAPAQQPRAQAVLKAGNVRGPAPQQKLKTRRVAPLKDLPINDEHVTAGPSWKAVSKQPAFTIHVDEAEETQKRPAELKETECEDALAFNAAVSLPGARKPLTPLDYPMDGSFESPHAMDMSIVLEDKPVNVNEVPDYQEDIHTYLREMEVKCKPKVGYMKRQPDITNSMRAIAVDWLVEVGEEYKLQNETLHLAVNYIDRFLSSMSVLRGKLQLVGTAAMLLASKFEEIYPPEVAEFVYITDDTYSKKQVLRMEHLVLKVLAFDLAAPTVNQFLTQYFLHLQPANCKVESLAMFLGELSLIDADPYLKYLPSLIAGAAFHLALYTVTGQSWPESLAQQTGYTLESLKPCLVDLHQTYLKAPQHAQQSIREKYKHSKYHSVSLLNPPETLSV

T1 sequence (P51943 whole entry, the tested form may be a part): as the sequence (P51943 whole entry L204A, the tested form may be a part) above, with A204L counted along it
T3 sequence (P51943 whole entry M200A, the tested form may be a part): as the sequence (P51943 whole entry L204A, the tested form may be a part) above, with M200A, A204L counted along it
T2 sequence (P51943 whole entry D171A, the tested form may be a part): as the sequence (P51943 whole entry L204A, the tested form may be a part) above, with D171A, A204L counted along it

percent co-precipitated relative to WT [1]: 100%
percent co-precipitated relative to WT [2]: 95%
percent co-precipitated relative to WT [3]: 57.4%
percent co-precipitated relative to WT [4]: 5.3%
B1: p107 (endogenous, HEK 293) (natural protein, human (endogenous in HEK 293), UniProt P28749 1-1068, looked up)
chain: MFEDKPHAEGAAVVAAAGEALQALCQELNLDEGSAAEALDDFTAIRGNYSLEGEVTHWLACSLYVACRKSIIPTVGKGIMEGNCVSLTRILRSAKLSLIQFFSKMKKWMDMSNLPQEFRERIERLERNFEVSTVIFKKYEPIFLDIFQNPYEEPPKLPRSRKQRRIPCSVKDLFNFCWTLFVYTKGNFRMIGDDLVNSYHLLLCCLDLIFANAIMCPNRQDLLNPSFKGLPSDFHTADFTASEEPPCIIAVLCELHDGLLVEAKGIKEHYFKPYISKLFDRKILKGECLLDLSSFTDNSKAVNKEYEEYVLTVGDFDERIFLGADAEEEIGTPRKFTRDTPLGKLTAQANVEYNLQQHFEKKRSFAPSTPLTGRRYLREKEAVITPVASATQSVSRLQSIVAGLKNAPSDQLINIFESCVRNPVENIMKILKGIGETFCQHYTQSTDEQPGSHIDFAVNRLKLAEILYYKILETVMVQETRRLHGMDMSVLLEQDIFHRSLMACCLEIVLFAYSSPRTFPWIIEVLNLQPFYFYKVIEVVIRSEEGLSRDMVKHLNSIEEQILESLAWSHDSALWEALQVSANKVPTCEEVIFPNNFETGNGGNVQGHLPLMPMSPLMHPRVKEVRTDSGSLRRDMQPLSPISVHERYSSPTAGSAKRRLFGEDPPKEMLMDKIITEGTKLKIAPSSSITAENVSILPGQTLLTMATAPVTGTTGHKVTIPLHGVANDAGEITLIPLSMNTNQESKVKSPVSLTAHSLIGASPKQTNLTKAQEVHSTGINRPKRTGSLALFYRKVYHLASVRLRDLCLKLDVSNELRRKIWTCFEFTLVHCPDLMKDRHLDQLLLCAFYIMAKVTKEERTFQEIMKSYRNQPQANSHVYRSVLLKSIPREVVAYNKNINDDFEMIDCDLEDATKTPDCSSGPVKEERGDLIKFYNTIYVGRVKSFALKYDLANQDHMMDAPPLSPFPHIKQQPGSPRRISQQHSIYISPHKNGSGLTPRSALLYKFNGSPSKSLKDINNMIRQGEQRTKKRVIAIDSDAESPAKRVCQENDDVLLKRLQDVVSERANH
notes: p107, endogenous protein of human HEK 293 cells, detected by Western blot; source: endogenous, HEK 293 cell extract
